The nature of this data set: soluble on expression in E. coli; label from the status in PepcDB or PDB records.
Consider “MHEYPITKRIIEISQEHANKHNAKEVKQINLVVGDYSGYVASSIELYFGIIAEGTVCENAKLNIKRVKPMLKCNECESLFVRKPFSFECPYCGGQGSPTEIGHEFYIESIEI”, for which the “soluble on expression in E. coli” value was “soluble”. The entry for “MHHHHHHAMNHETFLKRAVTLACEGVNAGIGGPFGAVIVKDGAIIAEGQNNVTTSNDPTAHAEVTAIRKACKVLGAYQLDDCILYTSCEPCPMCLGAIYWARPKAVFYAAEHTDAAEAGFDDSFIYKEIDKPAEERTIPFYQVTLTEHLSPFQAWRNFANKKEY” is “soluble”; for “MHHHHHHSSGRENLYFQGPPARVRVAVRLRPFVDGTAGASDPPCVRGMDSCSLEIANWRNHQETLKYQFDAFYGERSTQQDIYAGSVQPILRHLLEGQNASVLAYGPTGAGKTHTMLGSPEQPGVIPRALMDLLQLTREEGAEGRPWALSVTMSYLEIYQEKVLDLLDPASGDLVIREDCRGNILIPGLSQKPISSFADFERHFLPASRNRTVGATRLNQRSSRSHAVLLVKVDQRERLAPFRQREGKLYLIDLAGSEDNRRTGNKGLRLKESGAINTSLFVLGKVVDALNQGLPRVPYRDSKLTRLLQDSLGGSAHSILIANIAPERRFYLDTVSALNFAARSKEVINRPFTNESLQPHALGPVKLSQKELLGPPEAK” it is “soluble”; for “MHHHHHHSSGRENLYFQGVWKSYLYQLQQEAPHPRRITCTCEVENRPKYYGREFHGMISREAADQLLIVAEGSYLIRESQRQPGTYTLALRFGSQTRNFRLYYDGKHFVGEKRFESIHDLVTDGLITLYIETKAAEYIAKMTINPIYEHVGYTTLNREPAYKKHMPVLKETHDERDSTGQDGVSEKRLTSLVRRATLKENEQIPKYEKIHNFKVHTFRGPHWCEYCANFMWGLIAQGVKCADCGLNVHKQCSKMVPNDCKPDLKHVKKVYSCDLTTLVKAHTTKRPMVVDMCIREIESRGLNSEGLYRVSGFSDLIEDVKMAFDRDGEKADISVNMYEDINIITGALKLYFRDLPIPLITYDAYPKFIESAKIMDPDEQLETLHEALKLLPPAHCETLRYLMAHLKRVTLHEKENLMNAENLGIVFGPTLMRSPELDAMAALNDIRYQRLVVELLIKNEDILF” it is “soluble”.

Take “MHHHHHHSSGVDLGTENLYFQSMLNTSGSGTILIDLSPDDKEFQSVEEEMQSTVREHRDGGHAGGIFNRYNILKIQKVCNKKLWERYTHRRKEVSEENHNHANERMLFHGSPFVNAIIHKGFDERHAYIGGMFGAGIYFAENSSKSNQYVYGIGGGTGCPVHKDRSCYICHRQLLFCRVTLGKSFLQFSAMKMAHSPPGHHSVTGRPSVNGLALAEYVIYRGEQAYPEYLITYQIMRPEG”: the “soluble on expression in E. coli” value was “soluble”.

As to “MHHHHHHSSGVDLGTENLYFQSMSHQVGVAGAVFDESTRKILVVQDRNKLKNMWKFPGGLSEPEEDIGDTAVREVFEETGIKSEFRSVLSIRQQHTNPGAFGKSDMYIICRLKPYSFTINFCQEECLRCEWMDLNDLAKTENTTPITSRVARLLLYGYREGFDKIDLTVEELPAVYTGLFYKLYHKELPENYKTMKGID”, the “soluble on expression in E. coli” value was “soluble”. The same measure for “MHHHHHHSSGVDLGTENLYFQSNAMLDPLDILTNIDDVLPYYQAIFSAEEQKVVGYEVLGRILADSEIQSLGPFFLDAGIPEEYKLEVDNRIIRQALDRFLEADSDLLIFMNQDANLLMLDHGESFLELLKEYEAKGIELHRFVLEITEHNFEGDIEQLYHMLAYYRTYGIKIAVDNIGKESSNLDRIALLSPDLLKIDLQALKVSQPSPSYEHVLYSISLLARKIGAALLYEDIEANFQLQYAWRNGGRYFQGYYLVSPSETFLERDVLKQRLKTEFHQFITHEKKKLETVYEHSEQFYKRVHQAVTSLRKNNLSSDDDFIKKLAEELTDCSFRIYMCDEEGDQLTGNVFKQDGEWIYQPEYAEKNWSWRPYFLENIMRMRNLRKGFFSDLYSDLETGEMIRTFSYPMDDQMYLFIDLPYSYLYEQDGLI”: “soluble”. The same measure for “MHHHHHHSSGVDLGTENLYFQSNAMMKAYQREFIEFALEKQVLKFGEFTLKSGRKSPYFFNAGLFNTGRDLARLGRFYAAALVDSGIEFDVLFGPAYKGIPIATTTAVALADHHDVDTPYCFNRKEAKNHGEGGNLVGSKLEGRVMLVDDVITAGTAIRESMELIQANKADLAGVLVAIDRQEKGKGELSAIQEVERDFGCAVISIVSLTDLITYLEQQGNNTEHLEAVKAYRAQYGI”: “soluble”; for “MHHHHHHSSRQEPPKIHLDCPGRIPDTIVVVAGNKLRLDVPISGDPAPTVIWQKAITQGNKAPARPAPDAPEDTGDSDEWVFDKKLLCETEGRVRVETTKDRSIFTVEGAEKEDEGVYTVTVKNPVGEDQVNLTVKVID”: “soluble”. The entry for “MHHQSVLHSGYFHPLLRSWQTAASTVSASNLIYPIFVTDVPDDVQPIASLPGVARYGVNQLEEMLRPLVEAGLRCVLIFGVPSRVPKDEQGSAADSEDSPTIEAVRLLRKTFPSLLVACDVCLCPYTSHGHCGLLSENGAFLSEESRQRLAEVALAYAKAGCQVVAPSDMMDGRVEAIKAALLKHGLGNRVSVMSYSAKFASCFYGPFRDAAQSSPAFGDRRCYQLPPGARGLALRAVARDIQEGADMLMVKPGLPYLDMVREVKDKHPELPLAVYQVSGEFAMLWHGAQAGAFDLRTAVLETMTAFRRAGADIIITYFAPQLLKWLKEE” is “soluble”; for “MHIIFDTSGFLSGLQLSLDRVYTTQEVINEIKDKYSRFNLEIAISSGKVIIMKPSTRSVEKVTKVLNLTKERKLSNTDISVIALALDLQPSIVFTDDLSVQNILKQLGIQFSSVKINKKVEKSFKFKYVCVNCKREFNIDHGECPYCGGKVVKRRIMELEHHHHHH” it is “not soluble”; for “MHLCGVDYYQIDKQGSCKFRFKATQFYRALKNNKVSLRGIKPKDDGTTGQKLQVIPLLEMLISPGVRICDGGKFYNLQYEKAIRSGKMIVALTCKENNKKYVPQSLLSLINQPRKSQSKSLTESHEVIKISKSELNSTSVIEVYDKF” it is “not soluble”.

Turning to “MHLTREVNIMSILSAVSRVINNFSTEIKNRVVEVGSNLKKSTEEFIGEVVIKAAVNRLKQGMLNALSSSNDTTKDNGNDLSTNSPDIEDVSAPTLSSKKKTEANTTLVGSTGIMQKLLGNIGVNSEQSIEVLSKHFNGAVERFTQDVSKAANEAVCEKIKSIQPEDVVKGINSLIGNTLKVDSESGDTTLSFKLESAVQILGVILAAMGMLMFASQTKSTEQKTLEIEHLPTEEIQPPSLAIH”, the “soluble on expression in E. coli” value is “not soluble”.

Take “MHMNAEEIGMALLNGRKELGLRQGELADLAGVSERFIRDVEKGKTTVRLDKVIDVLRVLGLELSVGIHDPLKVNQ”: the “soluble on expression in E. coli” value is listed as “not soluble”. The same measure for “MHMVTYPCLTSRRFQLALIHRRVVDKRTSMHSRTASESTGARIHRPWCARHQVRPAWRCQYDKLHRVPFRSPELRLDSGPGYTTGSYRYMAGDPLEHHHHHH”: “not soluble”; for “MHPMNILLKLPLKIPLMIIEKAREILEKHPLCNHCLGRMFAKLGKGTNEERGKAIRLILSMELNREVKEPENCELCQGIFRRMNELLDLVRNAVEDYEFQTFQIGSRFPKDILEKEKKIWEEFGITTGEPINREFNRELGKLFAKVTGKIPNRERPDIVIIVEPFSSKVELQVNPIYVAGRYRKLVRGIPQTPAPGFEESIATIICRVFKKNFRGKCIFKGAGREDVDVRTLGRGRPFVVEIKKPRKRKVDLKLIEEEINSSGKVEVLELKFITPEESEKILTARHKKIYEALVYVKDGVSAEEVEKVVKSLKGSEIKQRTPRRVLNSRADIVRVRRVYNVSGEYIDEHHFKLKLVTDGGLYIKELISGDKGRTKPSVSEILGKEAWCEILDVLDVLDGDENVEGDSLEHHHHHH”: “not soluble”; for “MHSDELLVEILVEELPAQALLNEYKEMPKKLHALFNKRALEVGNIEIFYTPRRLCLLIKDFPLLTQETKEEFFGPPVKIACNHQDKTQGLNALGLGFYQKLGLKDHQYFQTAFKNNKEVLYHAKIHEKEPTKDLIMPIVLEFLEGLNFGKSMRWGNVEKSFIRPIHNICVLFNGEDFSGIEVKEYGFKTKQATKVHRQEGFDFIQVDSPKAYFEVLEKNHVILDPKKREAKILQEIKELETKHHIIVETDRDLLDEVVAITEYPSALLGEFDKAFLKLPSEIIITSMKENQRYFATFCQKSQEESPTLHNGFIVVSNAINKDKQKIILGNQKVLKARLSDAVFFYENDLKKPLDNAPLESVVFVQGLGTLKDKMERESIIAQYLTQKYISSLNMPLEKALELVKRAVQIAKADLLSEVVYEFSELQGIMGYYYALKQNENELVALSVKEQYLPASENAPLPSSVFSSIVALSLKLDSLFSLFSVGKIPSGSKDPFALRRLSFGLLKIIAHYGLEFDLKADLKNLFQKVGVYQSFDLEILEKFLLERFHNLIDCNPSIIRSVLNTNERDIVK”: “not soluble”. The same measure for “MHSENQSKGVHYAKSQRLLEINHAHLQLMESLLDEGKKYNIFKPGIDPLQVNINIAALGGYYLINQHTLGLVYHISMVSPQALEARRKVIKETILSWLLVDPSSTAHE”: “not soluble”; for “MHSLTSRAPAEPDERLQALKRLIGKVTPQIGLNDVCKTSIPDLTFYRMDKLATPTYCIYEPCVAIILQGAKEITFGEQACEFAQGSFFVTSVDIPTLARVTAASEQTPYLSIVLKLDLSMLNDVIQTQAPLKQEATPEARGFASGMASSEMLDAFARLSALTGQPLEAGLMSDLIKREICVRLLLSCAGQWLRSVTRDGYRDKGIVRAIEWLKLHYDEPLHVAQLAQLSGMASSTLHHNFRKLTGTSPVQYQKSLRLQAARSLMLTERVDVNTAALRVGYESVAQFSREYARRFGAPPSRDIKYAREAGGRRD”: “not soluble”. As to “MHSQFGKHKSDISLLTPAPPSPKAFGLLYAAHWLGSTDPEIWERLETLANENQCLIDLRDEKVPGTYETQLFVIGYAGNIVTVLKQLQDYIDEPNNFDRFDIDRRPRKETLKMCVPTDMFLSKFGVGLVAEGRITHYEQNRGVTIKTYAISQSQHVISVYSNENNHQLPLHDLVEYFAYPSQCYEKSFAQKIPYLVDNKSGLLNRFKDISKLDVIKTPRDQLWLMALDGMKTVDARESILQALRENPDSASLYVRACKLEHLPSCKMEWLLHALQRDTLDDKMKIIKHAETYFRGPAILQILESAVLSLSNDIHIVRELAIAHEKSGNFEKSMQFLKDCIDNNSWNSTELTASMIHCEHAGANRTSKVYLEAMYSIFNFTTSEEAALIEIVKVLVETDSPLSAKSLSLELMTRYAGTPTFEKTRQLFHSLFYTTCSKSDSERYDDTFIKHMAKWNKKQQEQQK”, the “soluble on expression in E. coli” value is reported as “not soluble”. The entry for “MHSRSVKFPSSKGHQIAGTIDFPDGTPRAFAMFAHCFTGSRFTPGAARVSKELAERGIACLRFDFPGLGQSEGIFSETSFSENVADIKAAADWLGQHYSAPQLLIGHSLGGAASLKAATTLKCLRGVATIGAPFDPAHAVLHFADRIGEVDENGAVTLTLGGRDITISREFLEDLADTNPEAYLPRLRKPLLILHSPIDQTVGVDNAQLIFRTTRYPKSLVALDKVDHLLTKQGSAQQAARIINTWFEQHIVAENEDPNADTLPEGVAVAQSIPAGKFADIVHTGTHSFTTDREKALGGKNLGVSPTSLLISALAAATSQEIRLAAKESRIHSLEDVNVTISKTVGDGERVHLRRNISLVGDLTDDERHELLLAARNSDIEKMLQGNVTINDQDV” is “not soluble”.
